Measured values taken from patent publication US20240109955A1.

molecular target: SARS-CoV-2 spike protein, original Wuhan strain (WT) (SARS-CoV-2) (UniProt P0DTC2); assay: cell-based or functional assay

A19-46 mAb (antibody), sequence (VH): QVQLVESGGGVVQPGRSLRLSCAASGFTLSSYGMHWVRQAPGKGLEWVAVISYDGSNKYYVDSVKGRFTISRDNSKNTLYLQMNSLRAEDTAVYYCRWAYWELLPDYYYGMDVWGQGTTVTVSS
A19-46 mAb (antibody), sequence (VL): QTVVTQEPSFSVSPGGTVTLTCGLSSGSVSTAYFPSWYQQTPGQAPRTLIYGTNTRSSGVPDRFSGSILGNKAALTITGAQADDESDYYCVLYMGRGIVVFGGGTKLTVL
A19-46.1 (antibody), sequence (VH): as the sequence (VH) above
A19-46.1 (antibody), sequence (VL): as the sequence (VL) above

Substance | IC50, pseudovirus neutralization | IC80, pseudovirus neutralization
A19-46 mAb (antibody) | 0.263 nM | 0.778 nM
A19-46.1 (antibody) | 0.263 nM | 0.778 nM
A19-61 mAb (antibody) | 0.172 nM | 0.408 nM
B1-182 mAb (antibody) | 0.0264 nM | 0.0692 nM
B1-182.1 (antibody) | 0.0264 nM | 0.0692 nM
